Source: the DeepSol protein solubility set

test: soluble on expression in E. coli; label from the status in PepcDB or PDB records

Row | Sequence | soluble on expression in E. coli
1 | MSKLYFRYGAMNSGKSTHLMQVAHNYEERGMEVIIIKPSTDKKGGDKVVSRLGVERVVDILIDNDENIIETIEDRLEKGRKIDCIIVDEVQFLKAHHIDELFEIAVGKGIPVICYGLRTDFQMNGFEGSERLLLLAHSIEEMKTICRCGRKAILNGRMINGKFTFEGEQVAIDLVDNVEYQSLCGQCYFKYKYGKDSDNLEHHHHHH | soluble
2 | MSKNRQIQGCEVNECLHLDSTKPKSMLNKVKSVHSGFLGEPCVSVCCVCASSPVFLRRYFEWQPFSPREPHVWSTDRPLKVIDLTHLLFTEQMSDCVLGCTPQHCRLQSPVFARDTVLEVEVLLYSSLRFAHCSVDTRRPAFCSL | not soluble
3 | MSKPGQTILVALRKMIASGELAAGERLMEVPTAELFGVSRMPVRMAFRTLEQEGLLVPFGGRGFQVRSISPQEIAGAVDVRGVLEGLAARQMAERGLTQDARDALEACLVQGDALFDKGYVTEDDLEVYHDMNMRLHQVIVAGSGNRAIADALARNDHLPFASVTALAVDRHNLIREYRRFNFAHMQHHAVVDALINGQGARAEALMREHANATLRYADIFGAGVHERMKVIQRPD | not soluble
4 | MSKPLIFAHRGVKGTHPENTMIAFQEAERIGAHGIELDVHLSKDGELVVIHDETVDRTTNGVGLVSEKTVEELQLLDAGSYKDPSFHEAKIPTLREVFIWLSTTNLQLNIELKTDVIHYPNIEEKAVALVREYHLSNQIVFSSFNHDSVSLLAEIAPEIPRAILYDTPLTDPISEAKHREASGLHPNFQLLTKEFVQLAQEQGYVFRPYTINEYKDLQTMIDYGVDVIITDWPARAFELLS | not soluble
5 | MSKQQIGVVGMAVMGRNLALNIESRGYTVSIFNRSREKTEEVIAENPGKKLVPYYTVKEFVESLETPRRILLMVKAGAGTDAAIDSLKPYLDKGDIIIDGGNTFFQDTIRRNRELSAEGFNFIGTGVSGGEEGALKGPSIMPGGQKEAYELVAPILTKIAAVAEDGEPCVTYIGADGAGHYVKMVHNGIEYGDMQLIAEAYSLLKGGLNLTNEELAQTFTEWNNGELSSYLIDITKDIFTKKDEDGNYLVDVILDEAANKGTGKWTSQSALDLGEPLSLITESVFARYISSLKDQRVAASKVLSGPQAQPAGDKAEFIEKVRRALYLGKIVSYAQGFSQLRAASEEYNWDLNYGEIAKIFRAGCIIRAQFLQKITDAYAENPQIANLLLAPYFKQIADDYQQALRDVVAYAVQNGIPVPTFSAAVAYYDSYRAAVLPANLIQAQRDYFGAHTYKRIDKEGVFHTEWLD | soluble
6 | MSKRLPPLNALRVFDAAARHLSFTRAAEELFVTQAAVSHQIKSLEDFLGLKLFRRRNRSLLLTEEGQSYFLDIKEIFSQLTEATRKLQARSAKGALTVSLPPSFAIQWLVPRLSSFNSAYPGIDVRIQAVDRQEDKLADDVDVAIFYGRGNWPGLRVEKLYAEYLLPVCSPLLLTGEKPLKTPEDLAKHTLLHDASRRDWQAYTRQLGLNHINVQQGPIFSHSAMVLQAAIHGQGIALANNVMAQSEIEAGRLVCPFNDVLVSKNAFYLVCHDSQAELGKIAAFRQWILAKAATEQEKFRFRYEQ | not soluble
7 | MSKRLYQQIETLWDYLQLHQQPNVADLILVLGSNDVRVAEHAAKLYHQGLAPYVLFSGGFGRFTQGVFNHNEAETFAAIAKDAGVPEHAILLETQSTNSGENLHFSHQLLVQQARPAKRILLVQKPYMERRAYATFMQQWPESVESVQVTSPAGSFFDYLTSELTSDFVLNAMLGDFERIRDYPALGFQITQPIPEPVMQAYQALLPLKVNLEMSLEHHHHHH | not soluble
8 | MSKRTTPTYPVEVIRSDRRTRTVSARLVGGKILIRIPASMSKKDEKKFVAEMVDKVRTKTQSSAPTDEALLHRAQHLNRTVLENRATIGSIRWVTNQTRRWGSCSQTTNDIRISHRLQGVPDYVLDAVIIHEMVHTFIEGGHSPEFWQWADKAPKAERAKGYLEAWQRMGDVGLEHHHHHH | not soluble
9 | MSKTHLTEQKFSDFALHPKVVEALEKKGFHNCTPIQALALPLTLAGRDVAGQAQTGTGKTMAFLTSTFHYLLSHPAIADRKVNQPRALIMAPTRELAVQIHADAEPLAEATGLKLGLAYGGDGYDKQLKVLESGVDILIGTTGRLIDYAKQNHINLGAIQVVVLDEADRMYDLGFIKDIRWLFRRMPPANQRLNMLFSATLSYRVRELAFEQMNNAEYIEVEPEQKTGHRIKEELFYPSNEEKMRLLQTLIEEEWPDRAIIFANTKHRCEEIWGHLAADGHRVGLLTGDVAQKKRLRILDEFTRGDLDILVATDVAARGLHIPAVTHVFNYDLPDDCEDYVHRIGRTGRAGASGHSISLACEEYALNLPAIETYIGHSIPVSKYNPDALMTDLPKPLRLTRPRTGNGPRRTGAPRNRRRSG | soluble
10 | MSLAAEGKAIAKVNDLVIFVPYVVPGDVVDLQIKRKKNKYAEAEAVKFHELSPVRAVPFCQHYGVCGGCKWQVLPYSEQIRYKQKQVEDNLRRIGKIELPEISPILGSAKTEFYRNKLEFTFSNKRWLTNDEVRQDVKYDQMNAVGFHIPGAFDKVLAIEKCWLQDDISNRIRNAVRDYAYEHDYSFINLRTQEGMLRNLIIRTSSTGELMVIVICKITEDHEMELFKQLLQFIADSFPEITSLLYIINNKCNDTINDLDVHVFKGKDHMFEEMEGLRFKVGPKSFYQTNSEQAYNLYKIAREFAGLTGKELVYDLYTGTGTIANFVSRQARQVIGIEYVPEAIEDAKVNAEINEIKNALFYAGDMKDMLTQEFINQHGRPDVIITDPPRAGMHQDVVDVILFAEPKRIVYVSCNPATQARDLQLLDGKYKVKAVQPVDMFPHTHHVENVVLLELREGHHHHHH | soluble
11 | MSLAAHYLDFERPIADLESKIEELSRLSETAGPGAFDTEIQALRDRAQELRKEAYANLDAWQKTMVARHPQRPHLRDYVAGLIDEFVELRGDRKFADDQAIVGGLGRFRGQPVVVMGHEKGHDTTTRLKHNFGMARPEGYRKAVRLMDMAERFNLPVITFVDTAGAYPGLGAEERGQAEAIARSTERCLTLGVPMVATIVGEGGSGGAIALAGANRVLILEHSIYSVISPEGAASILWRDGARAKDAATQMRITAQDLIKLGIVDRIVEEPAGGAHSDTEAAIQAVGDAVEDELKAMAAMSPAELKKQRSDRFYAIGREGHHHHHH | soluble
12 | MSLAANMYRVGDYVYFENSSSNPYLVRRIEELNKTANGNVEAKVVCLFRRRDISSSLNSLADSNAREFEEESKQPGVSEQQRHQLKHRELFLSRQFESLPATHIRGKCSVTLLNETDILSQYLEKEDCFFYSLVFDPVQKTLLADQGEIRVGCKYQAEIPDRLVEGESDNRNQQKMEMKVWDPDNPLTDRQIDQFLVVARAVGTFARALDCSSSIRQPSLHMSAAAASRDITLFHAMDTLQRNGYDLAKAMSTEGHHHHHH | not soluble
13 | MSLAATALLEAGLARVLFYPTLLYTLFRGKVPGRAHRDWYHRIDPTVLLGALPLRSLTRQLVQDENVRGVITMNEEYETRFLCNSSQEWKRLGVEQLRLSTVDMTGIPTLDNLQKGVQFALKYQSLGQCVYVHCKAGRSRSATMVAAYLIQVHKWSPEEAVRAIAKIRSYIHIRPGQLDVLKEFHKQITARATKDGTFVISKTEGHHHHHH | soluble
14 | MSLADFLRHRREALRPEDVGLSPGARRRARGLRREEVAALALMSTDYYTRLEQRRGPQPSERMLDSLARALRLTRAERDYLYRVAGHNAPASLSDPSPVAPALLRVLDRLDDTPALILTELGETLVQNRMAVALFGDASRHTGLARSAVYRWFTDPSERSVYPESDWGRQSRAQVANLRAAYGMRGARSHAGALVRILQQSNEEFAELWERHEVAQRFEDHKTLIHPEVGAIEVDCQALFTEDQSQTLLVLTAPPRTESHEKLQLLAVLGLHRFTEAEDQVREGHHHHHH | not soluble
15 | MSLADIGSDHAYLPCYAVLNHKASGAIAGEITDGPFLSAKRQVEKSGLNSHISVRQGDGLEVIKKGEADAITIAGMGGALIAHILEAGKDKLTGKERLILQPNIHAVHIREWLYKERYALIDEVILEEDGKCYEVLVAEAGDRDAAYDGISLSAGMLVGPFLAKEKNAVFLKKWTQELQHTQSIYEQISQAADTEQNKQKLKELADRMELLKEVIDHGEGHHHHHH | soluble
16 | MSLADIPYGTDYPDAPWIDRDGHVLIDDGGKPTQVHRGQARIAYRLAERYQDKLLHVAGIGWHSWDGRRWAADDRGEAKRAVLAELRQALSDSLNDKELRADVRKCESASGVAGVLDLAAALVPFAATVADLDSDPHLLNVANGTLDLHTLKLRPHAPADRITKICRGAYQSDTESPLWQAFLTRVLPDEGVRGFVQRLAGVGLLGTVREHVLAILIGVGANGKSVFDKAIRYALGDYACTAEPDLFMHRENAHPTGEMDLRGVRWVAVSESEKDRRLAESTIKRLTGGDTIRARKMRQDFVEFTPSHTPLLITNHLPRVPGDDTAIWRRIRVVPFEVVIPADEQDRELDARLQLEADSILSWAVAGWSDYQRIGLSQPDAVLAATSNYREDSDTIKRFIDDECVTSSPVLKATTTHLFEAWQRWRVQEGVPEISRKAFGQSLDTHGYPVTEGHHHHHH | not soluble
17 | MSLAEASTVETEFAARVQEFYHDQSDPIQLVVAFKALCAVKALLAAANLEEHGAKSSYFQEEFENWDLETKLWHLVEVLYLYRLAENEEVIAENQYSSISVLQENVLRQNPKLKELLIILGWLQTNSKGVDVPGSLSNTSKWSNTRQALANKDLNVLTTHGHTGETDTKLQNIDPDAPIRQACPVMAEDDLRDSQVFRTIYQLILSGQLQEAIELASSTGNHTLALILLGGTQDFIDPVLDKDFCETTMTDLIVPNKPSGAKHKLLWKQAVFKLSHQLGINKYERLIYDYLSGGDISGGLEVVGDSWENLLIIYLNKICLHVLLNALNSNESTTSIPAPPAESIDQVLNLISKGSNGAAQQSKHPLRIVMGSVMISEIGALISGVLKSLNNNFTTQKVWEEDYLVRVMAHLGLFAHAVGSQVSANDLTQLLTLYVQRLSARGFTDLVPLYLSFIPDDSDAREYYSKFLSSITDPSERTKQLQLVRKLGIDSNGDEERMANVLRRTVERVMADTEAEGHHHHHH | soluble
18 | MSLAEQIEFDQAHLTLQEITEALDNGRFVHVRRQLQDMEPEDIAHLLEASPRKAREVLWQLTDPEDYGEILDELNEDVKDALVSKMAPEKLAEATEGMDIDDVAYVLRSLPDDVSREVLSQMDAADRMRVETALSYPEDTAGGLMNTDVITIRADVDVDVVLRYLRMKGELPEATDALYVIDDESKLIGHLSLVTLLTTQPDVPVSEVMDDADEAIKVDMKDSDIANLFERRNWVSAPVVDENQHLVGRITIDDVVDIIREDAEHSMMSMAGMDDDEDTFAPEGHHHHHH | soluble
19 | MSLAEVSDLAKAIRMEKNLVKEYRDTIGGYFRRFHPEHFVLSRDEFAVEGRKITIESVLAYAFLRADLDFVSAQARKVDPEDMKGSDDAPVNNDEVFGHPSTPSGHGIGGPARFKGGSTASVALISTPTPAPFWHPAAQSTLLCAHVGDSRILLCDTATGLAQPLTSDHHPSSPTESRRLRRYAPAGSMVSGDSFGEERIAGLANSRAFGDMKSKRIGVSAEPELTRVEMGPAQYSFLVLMTDGISGTLSDQEIVDVVKEARTPEDGARNIVKYATEVSNDGDNATCQVVRLGGWERRSEGEGHHHHHH | not soluble
20 | MSLAGILGFPVAPFNTQGTLEEEALFQNIEFLLNEGLEAIFIACGSGEFQSLSQKEYEQMVEVAVSAAGGKVPVYTGVGGNLSTALDWAQLSEKKGADGYLILPPYLVHGEQEGLYQYAKTIIESTDLNAILYQRDNAVLSVEQIKRLTECEQLVGVKDGVGNMDLNINLVYTIGDRLGWLNGMPMAEVTMPAYLPIGFHSYSSAISNYIPHISRMFYDALKNGNDELVKELYRHVILPINDIRKQRKGYAVSLIKAGMEIMGLNVRNTARPPVGPVEKDHYQQLEAILKQPADRFPKKEGHHHHHH | not soluble
